Test results as given in patent US20170088617A1 (Boehringer Ingelheim, published 2017).

Assays:
[1] = target: T1, human CD33 on the AML-derived HL60 cell line (human, UniProt P20138 18-364); experiment: FACS Scatchard analysis on HL60 cells
T1 construct: whole, on cells; also called CD33 expressing HL60 cell line
Protocol: (§1) Fourteen CD33 binding agents (fully human monoclonal antibodies as listed in table 1 as No. 1-14, respectively) to human and cynomolgus CD33 were determined by FACS Scatchard analysis as described in Brockhoff et al., (Cytometry. 1994 Sep. 1; 17(1):75-83) on CD33 expressing cells (AML-derived HL60 cell line, recombinant HEK293-cynomolgusCD33 cell line). Briefly, dilutions of a CD33 binding agent were prepared in a 96 well plate starting with 100-400 nM in the first well (80 pil), followed by 11 dilution steps (1:2, 40+40 μl). 50 μl of CD33 binding agent dilutions are added to FACS tubes, 150 μl cells (0.8×10⁶/ml=1.2×10⁵ cells/tube) are added to each FACS tube. Cells were gently mixed and incubated for 1 h on ice. Thereafter 50 μl FITC conjugated secondary antibody (concentration 15 μg/ml; mouse mAb anti-human IgG) was added, mixed, and incubated for 30 min. on ice. 4 ml PBS ph7.2 containing 0.02% […] were added thereafter, cells were pelleted and resuspended in 300 μl PBS pH 7.2 and subjected to FACS analysis using a BD FACS Canto. All experimental steps were performed on wet ice, all CD33 binding agent dilutions were made in PBS/0.5% BSA+0.02% acid. FACS calibration was performed using Quantum FITC MESF (Premix) Beads (Bangs Laboratories). All samples were measured using the same FACS parameters. […] A regression line was drawn through the resulting data points, the slope of this line corresponds to the negative value of the association constant.

[2] = target: T2, cynomolgus CD33 on the recombinant HEK293-cynomolgusCD33 cell line (cynomolgus, UniProt A0A7N9ICR5 17-359); experiment: FACS Scatchard analysis on HEK293-cynomolgusCD33 cells
T2 construct: whole, on cells
Protocol: as §1

T1 sequence (P20138 18-364): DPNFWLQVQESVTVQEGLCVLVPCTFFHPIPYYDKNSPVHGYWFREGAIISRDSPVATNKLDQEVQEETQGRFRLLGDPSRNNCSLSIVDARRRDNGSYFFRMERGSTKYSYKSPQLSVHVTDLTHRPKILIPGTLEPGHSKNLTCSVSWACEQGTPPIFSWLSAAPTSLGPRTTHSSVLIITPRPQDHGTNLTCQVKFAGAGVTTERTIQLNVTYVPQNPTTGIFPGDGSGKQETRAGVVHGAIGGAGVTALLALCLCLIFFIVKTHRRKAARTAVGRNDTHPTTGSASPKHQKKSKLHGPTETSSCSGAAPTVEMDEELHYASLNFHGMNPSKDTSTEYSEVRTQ

B1: 280-03-08 (antibody, human IgG1, kappa, V domains shown)
VH: QVQLVQSGAEVKKPGSSVKVSCKASGGTFSDYAISWVRQAPGQGLEWMGRIIPILGVANYAQKFQGRVTITADKSTRTAYMELSSLRSEDTAVYYCARNWADAFDIWGQGTMVTVSS
VL: DIQLTQSPSSLSASVGDRVTITCRASQGISSVLAWYQQKPGKAPKLLIYDASSLESGVPSRFSGSGSGTDFTLTISSLQPEDFATYYCQQFNSSITFGQGTKLEIKR
notes: Fully human monoclonal antibody; also called No 1; Clone ID# 280-03-08
For B1, which Kd [1] is on record?
The Kd was 0.3 nM.

What about the Kd [2] of the same binder?
Its Kd is 0.03 nM.

B2: 280-61-07 (antibody, human IgG1, kappa, V domains shown)
VH: QVQLVQSGAEVKKPGSSVKVACKASGDTFSSYAISWVRQAPGQGLEWMGRVIPIIGIASYAQNFEGRVTITADRSTSTAYMALSSLRSEDTAVYYCARNWADAFDIWGQGTMVTVSS
VL: DIQLTQSPSSLSASVGDRVTITCRASQGISSVLAWYQQKPGKAPKLLIYAASSLESGVPSRFSGSGSGTDFTLTISSLQPEDFATYYCQQFNSSITFGQGTKLEIKR
notes: Fully human monoclonal antibody; also called No 9; Clone ID# 280-61-07
Which Kd [1] does the source give for B2 here?
Its Kd is 0.3 nM.

And the Kd [2]?
Its Kd is 0.4 nM.

B3: 283-07-03 (antibody, human IgG1, kappa, V domains shown)
VH: QVELVQSGAEVKKPGSSVKVSCKASGGTFSSYAISWVRQAPGQGLEWMGRIIPILGMANYAQKFQGRVTITADKSTYTAYMELSSLRSEDTAVYYCAREGGVDWYFDLWGRGTLVTVSS
VL: DIQLTQSPSSLSASVGDRVTITCRASQGISSALAWYQQKPGKAPKFMIYDASSLESGVPSRFSGSGSGTDFTLTISSLQPEDFATYYCQQFNSSITFGQGTKLEIKR
notes: Fully human monoclonal antibody; also called No 12; Clone ID# 283-07-03
How did the Kd [1] turn out when B3 was run?
The Kd was 0.3 nM.

And the Kd [2]?
The Kd was 2.1 nM.

B4: 280-34-02 (antibody, human IgG1, kappa, V domains shown)
VH: QVELVQSGAEVQKPGSSVKVSCKASGDTFSSYAISWVRQAPGQGLEWMGRIIPIVGIVNYAEKFQGRVTITADKSMSTAYMELSSLRSEDTAVYYCARNWADAFDIWGQGTMVTVSS
VL: DIQLTQSPSSLSASVGDRVTITCRASQGISSALAWYQQKPGKAPKLLIYDASRLESGVPSRFSGSGSGTDFTLTISSLQPEDFTTYYCQQFNSSYTFGQGTKLEIKR
notes: Fully human monoclonal antibody; also called No 6; Clone ID# 280-34-02
Which Kd [1] does the source give for B4 here?
Its Kd is 0.3 nM.

And the Kd [2]?
The Kd was 0.5 nM.

B5: 280-50-01 (antibody, human IgG1, kappa, V domains shown)
VH: QVQLVQSGAEVKKPGSSVKVACKASGDTFSSYAISWVRQAPGQGLEWMGRVIPIIGIASYAQNFQGRVTITADRSTSTAYMALSSLRSEDTAVYYCARNWADAFDIWGQGTMVTVSS
VL: DIQLTQSPSSLSASVGDRVTITCRASQGISSVLAWYQQKPGKAPKLLIYAASSLESGVPSRFSGSGSGTDFTLTISSLQPEDFATYYCQQFNSSITFGQGTKVEIKR
notes: Fully human monoclonal antibody; also called No 7; Clone ID# 280-50-01
With B5 as the binder, how does the Kd [1] read?
Its Kd is 0.3 nM.

What about the Kd [2] of the same binder?
The Kd was 0.5 nM.

B6: 280-50-01(mut) (antibody, human IgG1, kappa, V domains shown)
VH: QVQLVQSGAEVKKPGSSVKVACKASGDTFSSYAISWVRQAPGQGLEWMGRVIPIIGIASYAQNFQGRVTITADRSTSTAYMALSSLRSEDTAVYYCARNWADAFDIWGQGTMVTVSS
VL: DIQLTQSPSSLSASVGDRVTITCRASQGISSVLAWYQQKPGKAPKLLIYAASSLESGVPSRFSGSGSGTDFTLTISSLQPEDFATYYCQQFDSSITFGQGTKVEIKR
notes: Fully human monoclonal antibody; also called No 8
For B6, which Kd [1] is on record?
The Kd was 0.4 nM.

What about the Kd [2] of the same binder?
The Kd was 1.7 nM.

B7: 283-05-01 (antibody, human IgG1, kappa, V domains shown)
VH: QVELVQSGAEVKKPGSSVKVSCKASEDTFSSYAISWVRQAPGQGLEWMGRIIPIIGIVNYAQKFQGRVTITADKSTYTAYMELSSLRSEDTAVYYCAREGGVDWYFDLWGRGTLVTVSS
VL: DIQLTQSPSSLSASVGDRVTITCRASQGISSALAWYQQKPGKAPKFMIYDASSLESGVPSRFSGSGSGTDFTLTISSLQPEDFATYYCQQFNSSITFGQGTKLEIKR
notes: Fully human monoclonal antibody; also called No 11; Clone ID# 283-05-01
Which Kd [2] does the source give for B7 here?
Its Kd is 1.1 nM.

B8: 283-14-01 (antibody, human IgG1, kappa, V domains shown)
VH: QVQLVQSGAEVKKPGSSVKVSCKASGGTFSSYAISWVRQAPGQGLEWMGRIIPILGIANYAQKFQGRVTITADKSTYTAYMELSSLRSEDTAVYYCAREGGVDWYFDLWGRGTLVTVSS
VL: DIQLTQSPSSLSASVGDRVTITCRASQGISSALAWYQQKPGKAPKFMIYDASSLESGVPSRFSGSGSGTDFTLTISSLQPEDFATYYCQQFNSSITFGQGTKLEIKR
notes: Fully human monoclonal antibody; also called No 14; Clone ID# 283-14-01
B8 was tested. Which Kd [2] did it give?
Its Kd is 2.3 nM.

B9: 283-11-03 (antibody, human IgG1, kappa, V domains shown)
VH: QVQLVQSGAEVKKPGSSMKVSCKASEDTFSSYAISWVRQAPGQGLEWMGRIIPIIGIVNYAQKFQGRVTITADKSTCTAYMELTSLRSEDTAVYYCAREGGVDWYFDLWGRGTLVTVSS
VL: DIQLTQSPSSLSASVGDRVTITCRASQGISSALAWYQQKPGKAPKFMIYDASSLESGVPSRFSGSGSGTDFTLTISSLQPEDFATYYCQQFNSSITFGQGTKLEIKR
notes: Fully human monoclonal antibody; also called No 13; Clone ID# 283-11-03
How did the Kd [2] turn out when B9 was run?
Its Kd is 0.6 nM.

B10: 283-03-03 (antibody, human IgG1, kappa, V domains shown)
VH: QVELVQSGAEVKKPGSSVKVSCKASGGTFSSYAISWVRQAPGQGLEWMGRIIPILDMANYAQKFQGRVTITADKSTYTAYMELSSLRSEDTAVYYCAREGGVDWYFDLWGRGTLVTVSS
VL: DIQLTQSPSSLSASVGDRVTITCRASQGISSALAWYQQKPGKAPKFMIYDASSLESGVPSRFSGSGSGTDFTLTISSLQPEDFATYYCQQFNSSITFGQGTKLEIKR
notes: Fully human monoclonal antibody; also called No 10; Clone ID# 283-03-03
With B10 as the binder, how does the Kd [2] read?
The Kd was 1.9 nM.

B11: 280-31-01 (antibody, human IgG1, kappa, V domains shown)
VH: QVQLVQSGAEVKKPGSSVKVSCKASGGTFSDYAISWVRQAPGQGLEWMGRIIPILGVADYAQKFQGRVTITADKSTRTAYMELSSLRSEDTAVYYCARNWADAFDIWGQGTMVTVSS
VL: DIQLTQSPSSLSASVGDRVTITCRASQGISSVLAWYQQKPGKAPKLLIYDASSLESGVPSRFSGSGSGTDFTLTISSLQPEDFATYYCQQFNSSITFGQGTKLEIKR
notes: Fully human monoclonal antibody; also called No 4; Clone ID# 280-31-01
For B11, which Kd [2] is on record?
The Kd was 0.3 nM.

B12: 280-31-01(mut) (antibody, human IgG1, kappa, V domains shown)
VH: QVQLVQSGAEVKKPGSSVKVSCKASGGTFSDYAISWVRQAPGQGLEWMGRIIPILGVADYAQKFQGRVTITADKSTRTAYMELSSLRSEDTAVYYCARNWADAFDIWGQGTMVTVSS
VL: DIQLTQSPSSLSASVGDRVTITCRASQGISSVLAWYQQKPGKAPKLLIYDASSLESGVPSRFSGSGSGTDFTLTISSLQPEDFATYYCQQFDSSITFGQGTKLEIKR
notes: Fully human monoclonal antibody; also called No 5
How did the Kd [2] turn out when B12 was run?
Its Kd is 0.5 nM.

B13: 280-29-12 (antibody, human IgG1, kappa, V domains shown)
VH: QVQLVQSGTEVKKPGSSVKVSCKVSGDTFSSYAISWVRQAPGQGLEWMGRIIPIIGIANYAQKFQGRVTITADKSTSTAYMELSSLRSEDTAVYYCARHWLDAFDIWGQGTMVTVSS
VL: DIQLTQSPSSLSASVGDRVTITCRASQGISSALAWSQQKPGKAPKLLIYDASSLESGVPSRFSGSGSGTDFTLTISSLQPEDFATYYCQQFNSSITFGQGTKLEIKR
notes: Fully human monoclonal antibody; also called No 3; Clone ID# 280-29-12
Which Kd [2] does the source give for B13 here?
Its Kd is 0.6 nM.

B14: 280-21-09 (antibody, human IgG1, kappa, V domains shown)
VH: QVQLVQSGAEVKKPGSSVKVSCKASGDTFSSYAISWVRQAPGQGLEWMGRIIPIINIASYAQNFQGRVTITADKSTNTAYMELSSLRSEDTAVYYCARNWADAFDIWGQGTMVTVSS
VL: DIQLTQSPSSLSASVGDRVTITCRASQGISSALAWYQQKPGKAPKLLIYDASSLESGVPSRFSGSGSGTDFTLTISSLQPEDFATYYCQQFNSSITFGQGTKLEIKR
notes: Fully human monoclonal antibody; also called No 2; Clone ID# 280-21-09
With B14 as the binder, how does the Kd [2] read?
Its Kd is 0.3 nM.
